Laboratory results reported in the supplement of paper PMC5998384.

Columns and labels:
HeLa Kyoto [1] = assay: melting temperature (median over replicates), in situ; higher = more thermally stable
HeLa Kyoto [2] = assay: solubility in G1/S (NP-40 vs SDS abundance) (log2 ratio); higher = more soluble; settings: cell cycle stage: G1/S
HeLa Kyoto [3] = assay: thermal stability score vs G1/S (z-score of summed log2 fold changes over temperatures); higher = more thermally stable than in G1/S
HeLa Kyoto [4] = assay: solubility change mitosis vs G1/S (difference of NP-40 vs SDS log2 ratios) (log2 ratio difference); higher = more soluble in mitosis
[5] = cell cycle stage: early G1 (4.5 h after nocodazole release)
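Throughout, for melting temperature (median over replicates), in situ: HeLa Kyoto cells synchronized by double thymidine or nocodazole block, proteins quantified by TMT10plex mass spectrometry, three independent biological replicates.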
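Throughout, for solubility change mitosis vs G1/S (difference of NP-40 vs SDS log2 ratios): synchronized HeLa Kyoto cells (double thymidine block for G1/S, nocodazole release for mitosis), protein amounts in NP-40 versus SDS lysates quantified by mass spectrometry, three biological replicates.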
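Throughout, for solubility in G1/S (NP-40 vs SDS abundance): HeLa Kyoto cells arrested at G1/S by double thymidine block, proteins quantified by TMT10plex mass spectrometry in mild NP-40 versus SDS extracts, three biological replicates.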
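Throughout, for thermal stability score vs G1/S (z-score of summed log2 fold changes over temperatures): synchronized HeLa Kyoto cells, proteins quantified by TMT10plex mass spectrometry, three biological replicates, mitosis taken 0.5 h after nocodazole release, G1/S directly after double thymidine block.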

Sequence | melting temperature (HeLa Kyoto [1]; cell cycle stage: G1/S) [°C] | melting temperature (HeLa Kyoto [1]; cell cycle stage: mitosis) [°C] | solubility in G1/S (log2) (HeLa Kyoto [2]) | thermal stability score (HeLa Kyoto [3]; [5]) | thermal stability score (HeLa Kyoto [3]; cell cycle stage: mitosis) | solubility change mitosis (log2) (HeLa Kyoto [4])
MAIPGRQYGLILPKKTQQLHPVLQKPSVFGNDSDDDDETSVSESLQREAAKKQAMKQTKLEIQKALAEDATVYEYDSIYDEMQKKKEENNPKLLLGKDRKPKYIHNLLKAVEIRKKEQEKRMEKKIQREREMEKGEFDDKEAFVTSAYKKKLQERAEEEEREKRAAALEACLDVTKQKDLSGFYRHLLNQAVGEEEVPKCSFREARSGIKEEKSRGFSNEVSSKNRIPQEKCILQTDVKVEENPDADSDFDAKSSADDEIEETRVNCRREKVIETPENDFKHHRSQNHSRSPSEERGHSTRHHTKGSRTSRGHEKREDQHQQKQSRDQENHYTDRDYRKERDSHRHREASHRDSHWKRHEQEDKPRARDQRERSDRVWKREKDREKYSQREQERDRQQNDQNRPSEKGEKEEKSKAKEEHMKVRKERYENNDKYRDREKREVGVQSSERNQDRKESSPNSRAKDKFLDQERSNKMRNMAKDKERNQEKPSNSESSLGAKHRLTEEGQEKGKEQERPPEAVSKFAKRNNEETVMSARDRYLARQMARVNAKTYIEKEDD [NSRP1] | 55.3 | 55.6 | -0.433 | 0.0783 | -1.16 | 0.242
MAAERGAGQQQSQEMMEVDRRVESEESGDEEGKKHSSGIVADLSEQSLKDGEERGEEDPEEEHELPVDMETINLDRDAEDVDLNHYRIGKIEGFEVLKKVKTLCLRQNLIKCIENLEELQSLRELDLYDNQIKKIENLEALTELEILDISFNLLRNIEGVDKLTRLKKLFLVNNKISKIENLSNLHQLQMLELGSNRIRAIENIDTLTNLESLFLGKNKITKLQNLDALTNLTVLSMQSNRLTKIEGLQNLVNLRELYLSHNGIEVIEGLENNNKLTMLDIASNRIKKIENISHLTELQEFWMNDNLLESWSDLDELKGARSLETVYLERNPLQKDPQYRRKVMLALPSVRQIDATFVRF [PPP1R7] | 52.7 | 52.8 | 0.332 | -1.16 | -2.37 | 0.033
MAAPDLSTNLQEEATCAICLDYFTDPVMTDCGHNFCRECIRRCWGQPEGPYACPECRELSPQRNLRPNRPLAKMAEMARRLHPPSPVPQGVCPAHREPLAAFCGDELRLLCAACERSGEHWAHRVRPLQDAAEDLKAKLEKSLEHLRKQMQDALLFQAQADETCVLWQKMVESQRQNVLGEFERLRRLLAEEEQQLLQRLEEEELEVLPRLREGAAHLGQQSAHLAELIAELEGRCQLPALGLLQDIKDALRRVQDVKLQPPEVVPMELRTVCRVPGLVETLRRFRGDVTLDPDTANPELILSEDRRSVQRGDLRQALPDSPERFDPGPCVLGQERFTSGRHYWEVEVGDRTSWALGVCRENVNRKEKGELSAGNGFWILVFLGSYYNSSERALAPLRDPPRRVGIFLDYEAGHLSFYSATDGSLLFIFPEIPFSGTLRPLFSPLSSSPTPMTICRPKGGSGDTLAPQ [TRIM11] | 50.8 | 49.4 | 0.185 | 0.605 | 0.584 | -0.192
MSSGAASGTGRGRPRGGGPGPGDPPPSETHKLVVVGGGGVGKSALTIQFIQSYFVSDYDPTIEDSYTKICSVDGIPARLDILDTAGQEEFGAMREQYMRAGHGFLLVFAINDRQSFNEVGKLFTQILRVKDRDDFPVVLVGNKADLESQRQVPRSEASAFGASHHVAYFEASAKLRLNVDEAFEQLVRAVRKYQEQELPPSPPSAPRKKGGGCPCVLL [RRAS] | 56.1 | 56 | 0.28 | 0.904 | -0.296 | -0.0644
MAPQNLSTFCLLLLYLIGAVIAGRDFYKILGVPRSASIKDIKKAYRKLALQLHPDRNPDDPQAQEKFQDLGAAYEVLSDSEKRKQYDTYGEEGLKDGHQSSHGDIFSHFFGDFGFMFGGTPRQQDRNIPRGSDIIVDLEVTLEEVYAGNFVEVVRNKPVARQAPGKRKCNCRQEMRTTQLGPGRFQMTQEVVCDECPNVKLVNEERTLEVEIEPGVRDGMEYPFIGEGEPHVDGEPGDLRFRIKVVKHPIFERRGDDLYTNVTISLVESLVGFEMDITHLDGHKVHISRDKITRPGAKLWKKGEGLPNFDNNNIKGSLIITFDVDFPKEQLTEEAREGIKQLLKQGSVQKVYNGLQGY [DNAJB11] | 54.7 | 55 | 0.337 | 3 | 0.842 | -0.0195
MPLFFRKRKPSEEARKRLEYQMCLAKEAGADDILDISKCELSEIPFGAFATCKVLQKKVLIVHTNHLTSLLPKSCSLLSLATIKVLDLHDNQLTALPDDLGQLTALQVLNVERNQLMQLPRSIGNLTQLQTLNVKDNKLKELPDTVGELRSLRTLNISGNEIQRLPQMLAHVRTLEMLSLDASAMVYPPREVCGAGTAAILQFLCKESGLEYYPPSQYLLPILEQDGIENSRDSPDGPTDRFSREELEWQNRFSDYEKRKEQKMLEKLEFERRLELGQREHTQLLQQSSSQKDEILQTVKEEQSRLEQGLSEHQRHLNAERQRLQEQLKQTEQNISSRIQKLLQDNQRQKKSSEILKSLENERIRMEQLMSITQEETESLRRRDVASAMQQMLTESCKNRLIQMAYESQRQNLVQQACSSMAEMDERFQQILSWQQMDQNKAISQILQESAMQKAAFEALQVKKDLMHRQIRSQIKLIETELLQLTQLELKRKSLDTESLQEMISEQRWALSSLLQQLLKEKQQREEELREILTELEAKSETRQENYWLIQYQRLLNQKPLSLKLQEEGMERQLVALLEELSAEHYLPIFAHHRLSLDLLSQMSPGDLAKVGVSEAGLQHEILRRVQELLDAARIQPELKPPMGEVVTPTAPQEPPESVRPSAPPAELEVQASECVVCLEREAQMIFLNCGHVCCCQQCCQPLRTCPLCRQDIAQRLRIYHSS [LRSAM1] | 51 | 50.9 | 0.149 | 0.0283 | 0.57 | -0.0589
MPHLENVVLCRESQVSILQSLFGERHHFSFPSIFIYGHTASGKTYVTQTLLKTLELPHVFVNCVECFTLRLLLEQILNKLNHLSSSEDGCSTEITCETFNDFVRLFKQVTTAENLKDQTVYIVLDKAEYLRDMEANLLPGFLRLQELADRNVTVLFLSEIVWEKFRPNTGCFEPFVLYFPDYSIGNLQKILSHDHPPEYSADFYAAYINILLGVFYTVCRDLKELRHLAVLNFPKYCEPVVKGEASERDTRKLWRNIEPHLKKAMQTVYLREISSSQWEKLQKDDTDPGQLKGLSAHTHVELPYYSKFILIAAYLASYNPARTDKRFFLKHHGKIKKTNFLKKHEKTSNHLLGPKPFPLDRLLAILYSIVDSRVAPTANIFSQITSLVTLQLLTLVGHDDQLDGPKYKCTVSLDFIRAIARTVNFDIIKYLYDFL [ORC5] | 47.1 | 49 | -0.362 | 0.957 | 1.24 | -0.126
MKSARAKTPRKPTVKKGSQTNLKDPVGVYCRVRPLGFPDQECCIEVINNTTVQLHTPEGYRLNRNGDYKETQYSFKQVFGTHTTQKELFDVVANPLVNDLIHGKNGLLFTYGVTGSGKTHTMTGSPGEGGLLPRCLDMIFNSIGSFQAKRYVFKSNDRNSMDIQCEVDALLERQKREAMPNPKTSSSKRQVDPEFADMITVQEFCKAEEVDEDSVYGVFVSYIEIYNNYIYDLLEEVPFDPIKPKPPQSKLLREDKNHNMYVAGCTEVEVKSTEEAFEVFWRGQKKRRIANTHLNRESSRSHSVFNIKLVQAPLDADGDNVLQEKEQITISQLSLVDLAGSERTNRTRAEGNRLREAGNINQSLMTLRTCMDVLRENQMYGTNKMVPYRDSKLTHLFKNYFDGEGKVRMIVCVNPKAEDYEENLQVMRFAEVTQEVEVARPVDKAICGLTPGRRYRNQPRGPVGNEPLVTDVVLQSFPPLPSCEILDINDEQTLPRLIEALEKRHNLRQMMIDEFNKQSNAFKALLQEFDNAVLSKENHMQGKLNEKEKMISGQKLEIERLEKKNKTLEYKIEILEKTTTIYEEDKRNLQQELETQNQKLQRQFSDKRRLEARLQGMVTETTMKWEKECERRVAAKQLEMQNKLWVKDEKLKQLKAIVTEPKTEKPERPSRERDREKVTQRSVSPSPVPLSSNYIAQISNGQQLMSQPQLHRRSNSCSSISVASCISEWEQKIPTYNTPLKVTSIARRRQQEPGQSKTCIVSDRRRGMYWTEGREVVPTFRNEIEIEEDHCGRLLFQPDQNAPPIRLRHRRSRSAGDRWVDHKPASNMQTETVMQPHVPHAITVSVANEKALAKCEKYMLTHQELASDGEIETKLIKGDIYKTRGGGQSVQFTDIETLKQESPNGSRKRRSSTVAPAQPDGAESEWTDVETRCSVAVEMRAGSQLGPGYQHHAQPKRKKP [KIF23] | 49.3 | 49.6 | -0.255 | 0.0501 | 0.448 | -0.112
